Measured values: patent US20250002593A1 (INMAGENE PTE, published 2025)
Where two headings read alike, the source gives them in different places.

Assays:
[1] = biological target: T1, membrane hIL-36R (human, UniProt Q9HB29 20-575); assay: cell-based or functional assay
T1 sequence: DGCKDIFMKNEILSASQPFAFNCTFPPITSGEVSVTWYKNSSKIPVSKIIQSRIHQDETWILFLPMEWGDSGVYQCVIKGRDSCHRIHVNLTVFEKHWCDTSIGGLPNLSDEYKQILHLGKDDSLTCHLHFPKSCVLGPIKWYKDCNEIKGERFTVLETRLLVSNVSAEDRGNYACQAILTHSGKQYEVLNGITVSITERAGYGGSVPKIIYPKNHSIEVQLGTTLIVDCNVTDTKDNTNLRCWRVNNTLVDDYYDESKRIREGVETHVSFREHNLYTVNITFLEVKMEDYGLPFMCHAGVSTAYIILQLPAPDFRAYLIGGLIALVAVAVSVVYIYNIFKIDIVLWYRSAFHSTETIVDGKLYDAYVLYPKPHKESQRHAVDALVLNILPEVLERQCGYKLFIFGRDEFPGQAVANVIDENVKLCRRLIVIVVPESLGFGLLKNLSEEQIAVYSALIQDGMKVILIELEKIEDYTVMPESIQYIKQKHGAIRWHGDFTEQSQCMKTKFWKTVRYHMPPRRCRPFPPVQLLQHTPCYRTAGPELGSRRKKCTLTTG

[2] = biological target: T1, membrane hIL-36R; assay: cell-based or functional assay; remark: listed apart in the source
[3] = biological target: T1, membrane hIL-36R; assay: cell-based or functional assay; remark: listed apart in the source
[4] = biological target: T1, membrane hIL-36R; assay: cell-based or functional assay; remark: listed apart in the source
[5] = biological target: T1, membrane hIL-36R; assay: cell-based or functional assay; remark: listed apart in the source
[6] = biological target: T1, membrane hIL-36R; assay: cell-based or functional assay; remark: listed apart in the source
[7] = biological target: T1, membrane hIL-36R; assay: cell-based or functional assay; remark: listed apart in the source
[8] = biological target: T1, membrane hIL-36R; assay: cell-based or functional assay; remark: listed apart in the source
[9] = biological target: T2, Recombinant hIL-36R protein (Acrobio, Cat #IL2-H52H6) (human, UniProt Q9HB29 20-335); assay: SPR (Biacore T200, 25 C), antibody captured by Fc, hIL-36R analyte
T2 construct: Bought soluble protein; also called recombinant human IL-36R protein
T2 sequence: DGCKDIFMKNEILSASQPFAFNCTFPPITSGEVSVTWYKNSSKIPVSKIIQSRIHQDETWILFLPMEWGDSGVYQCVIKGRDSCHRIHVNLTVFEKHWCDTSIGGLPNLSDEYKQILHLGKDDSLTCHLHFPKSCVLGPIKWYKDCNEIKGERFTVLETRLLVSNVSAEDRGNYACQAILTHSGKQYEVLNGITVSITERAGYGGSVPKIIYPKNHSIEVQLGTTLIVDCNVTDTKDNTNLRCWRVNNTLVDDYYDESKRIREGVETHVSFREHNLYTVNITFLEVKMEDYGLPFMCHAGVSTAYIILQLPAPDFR

[10] = biological target: T3, mouse IL-36R (R&D, Cat #2354-RP) (mouse, UniProt Q9ERS7 22-338, limits assumed); assay: BLI, antibody on Protein A sensor, recombinant mouse IL-36R as analyte
T3 construct: Bought; also called recombinant mouse IL-36R protein
T3 sequence (looked up): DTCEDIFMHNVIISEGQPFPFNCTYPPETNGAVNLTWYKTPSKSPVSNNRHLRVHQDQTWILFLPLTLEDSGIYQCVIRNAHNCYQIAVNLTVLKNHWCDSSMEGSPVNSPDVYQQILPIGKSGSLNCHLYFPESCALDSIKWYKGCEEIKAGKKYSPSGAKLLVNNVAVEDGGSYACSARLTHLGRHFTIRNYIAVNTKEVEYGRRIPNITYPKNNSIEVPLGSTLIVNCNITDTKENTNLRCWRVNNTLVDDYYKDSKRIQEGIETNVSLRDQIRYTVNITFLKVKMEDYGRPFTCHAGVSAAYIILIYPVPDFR

[11] = biological target: T4, Recombinant hIL1R1 protein (human, UniProt P14778 18-332, limits assumed); assay: ELISA on coated recombinant hIL1R1 protein, detection with HRP anti-hIgG
T4 sequence (looked up): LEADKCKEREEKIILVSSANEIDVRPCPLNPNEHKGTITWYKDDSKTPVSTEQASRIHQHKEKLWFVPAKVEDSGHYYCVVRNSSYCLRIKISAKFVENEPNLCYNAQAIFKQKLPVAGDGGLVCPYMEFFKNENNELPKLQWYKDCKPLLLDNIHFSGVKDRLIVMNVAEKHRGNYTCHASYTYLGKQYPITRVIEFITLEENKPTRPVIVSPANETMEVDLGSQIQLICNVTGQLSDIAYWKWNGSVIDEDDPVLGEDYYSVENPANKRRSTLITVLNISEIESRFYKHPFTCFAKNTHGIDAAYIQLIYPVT

[12] = biological target: T5, recombinant hIL-36R-his (human, UniProt Q9HB29 20-337); assay: ELISA on coated recombinant hIL36R protein (1 µg/ml), detection with HRP anti-hIgG; unit taken from the x axis Ab(µg/mL)
T5 construct: Residues 1-337 (extracellular domain) are stated for the IL-36R-his used as immunogen; The range includes the signal peptide; no cleavage site is stated; also called recombinant hIL36R protein; recombinant human IL-36R-his protein; not shown: His tag
T5 sequence: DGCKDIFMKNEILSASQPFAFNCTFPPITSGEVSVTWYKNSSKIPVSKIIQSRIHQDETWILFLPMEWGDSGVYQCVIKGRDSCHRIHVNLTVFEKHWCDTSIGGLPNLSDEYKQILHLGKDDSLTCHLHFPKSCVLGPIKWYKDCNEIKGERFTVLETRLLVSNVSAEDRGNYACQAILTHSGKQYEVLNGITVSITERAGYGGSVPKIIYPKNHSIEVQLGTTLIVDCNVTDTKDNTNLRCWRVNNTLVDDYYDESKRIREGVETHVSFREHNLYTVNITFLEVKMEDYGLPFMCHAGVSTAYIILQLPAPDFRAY

[13] = biological target: T1, membrane hIL-36R; assay: flow cytometry on HEK293 cells transfected with pcDNA3.1-hIL36R, FITC anti-hIgG, MFI (median); unit taken from the x axis
[14] = biological target: T2, Recombinant hIL-36R protein (Acrobio, …); assay: BLI as in Example 2, antibody on Protein A sensor, hIL-36R analyte
[15] = biological target: T6, Recombinant cynomolgus IL36R protein (Acrobio, Cat #IL2-C52H5) (cynomolgus, UniProt A0A2K5WSK9 20-335); assay: BLI, antibody on Protein A sensor, recombinant cynomolgus IL36R as analyte
T6 construct: Bought; also called cyno IL-36R
T6 sequence: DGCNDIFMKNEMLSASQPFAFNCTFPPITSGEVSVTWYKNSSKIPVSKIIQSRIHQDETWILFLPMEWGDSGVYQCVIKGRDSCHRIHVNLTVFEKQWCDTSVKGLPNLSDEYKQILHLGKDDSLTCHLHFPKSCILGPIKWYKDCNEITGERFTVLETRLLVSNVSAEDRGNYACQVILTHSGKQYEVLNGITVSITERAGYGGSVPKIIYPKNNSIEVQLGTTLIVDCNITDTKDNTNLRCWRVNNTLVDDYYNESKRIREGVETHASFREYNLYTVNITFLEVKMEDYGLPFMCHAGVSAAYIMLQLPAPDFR

[16] = biological target: T7, recombinant hFcRn-his/B2M heterodimer protein (Acrobio, Cat #FCM-H82W4) (human, UniProt P55899 24-297; P61769 21-119); assay: BLI (Gator) at pH 6.0, hFcRn-his/B2M on anti-his sensor, antibody analyte
T7 construct: Bought heterodimer

[17] = biological target: T7, recombinant hFcRn-his/B2M heterodimer …; assay: as above; remark: listed apart in the source

T7 sequence (P55899 24-297 limits assumed, chain 1 of 2): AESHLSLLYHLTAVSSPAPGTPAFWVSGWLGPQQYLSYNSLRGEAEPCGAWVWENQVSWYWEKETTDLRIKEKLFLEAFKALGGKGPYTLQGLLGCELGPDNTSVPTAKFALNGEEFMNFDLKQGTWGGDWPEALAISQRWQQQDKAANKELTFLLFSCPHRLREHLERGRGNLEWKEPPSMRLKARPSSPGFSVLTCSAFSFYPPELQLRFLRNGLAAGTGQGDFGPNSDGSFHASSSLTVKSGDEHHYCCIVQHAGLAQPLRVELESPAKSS
T7 sequence (P61769 21-119 limits assumed, chain 2 of 2): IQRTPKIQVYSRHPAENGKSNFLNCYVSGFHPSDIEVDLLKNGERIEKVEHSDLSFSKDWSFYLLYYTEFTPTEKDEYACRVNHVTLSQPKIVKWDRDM

B1: BI655130 (antibody, V domains shown)
VH: QVQLVQSGAEVKKPGASVKVSCKASGYSFTSSWIHWVKQAPGQGLEWMGEINPGNVRTNYNENFRNKVTMTVDTSISTAYMELSRLRSDDTAVYYCTVVFYGEPYFPYWGQGTLVTVSS
VL: QIVLTQSPGTLSLSPGERATMTCTASSSVSSSYFHWYQQKPGQAPRLWIYRTSRLASGVPDRFSGSGSGTDFTLTISRLEPEDAATYYCHQFHRSPLTFGAGTKLEIK
notes: also called benchmark antibody
- IC50, IL-36R reporter assay: inhibition of IL-36α induced luminescence in Jurkat-IL36R-IL1Racp-NFkB-luc cells [1]: 0.057 nM
- IC50, IL-36R reporter assay: inhibition of ligand induced luminescence in Jurkat-IL36R-IL1Racp-NFkB-luc cells (printed BI 655130) [2]: 0.0217 µg/mL
- IC50, IL-36R reporter assay: inhibition of ligand induced luminescence in Jurkat-IL36R-IL1Racp-NFkB-luc cells [3]: 0.0133 µg/mL
- IC50, inhibition of IL-36α induced IL-8 release in A431 cells (IL-8 ELISA, OD450) [panel IL-36α] [4]: 0.0955 µg/mL
- IC50, inhibition of IL-36β induced IL-8 release in A431 cells (IL-8 ELISA, OD450) [panel IL-36β] [4]: 0.0532 µg/mL
- IC50, inhibition of IL-36γ induced IL-8 release in A431 cells (IL-8 ELISA, OD450) [panel IL-36γ] [4]: 0.0065 µg/mL
- IC50, inhibition of IL-36α induced IL-8 release in primary human dermal fibroblast (HDF) cells (IL-8 ELISA, OD450) [5]: 0.00361 µg/mL
- IC50, inhibition of IL-36α induced IL-6 release in primary human epithelial keratinocytes (HEK cells) [panel IL-6] [6]: 0.0982 µg/mL
- IC50, inhibition of IL-36α induced IL-8 release in primary human epithelial keratinocytes (HEK cells) [panel IL-8] [6]: 0.0684 µg/mL
- IC50, inhibition of IL-36α induced TNF-α release in primary human epithelial keratinocytes (HEK cells) [panel TNF-α] [6]: 0.027 µg/mL
- IC50, inhibition of IL-36β induced IL-6 release in primary human epithelial keratinocytes (HEK cells) [panel IL-6] [7]: 0.0229 µg/mL
- IC50, inhibition of IL-36β induced IL-8 release in primary human epithelial keratinocytes (HEK cells) [panel IL-8] [7]: 0.0293 µg/mL
- IC50, inhibition of IL-36β induced TNF-α release in primary human epithelial keratinocytes (HEK cells) [panel TNF-α] [7]: 0.0107 µg/mL
- IC50, inhibition of IL-36γ induced IL-6 release in primary human epithelial keratinocytes (HEK cells) [panel IL-6] [8]: 0.0138 µg/mL
- IC50, inhibition of IL-36γ induced IL-8 release in primary human epithelial keratinocytes (HEK cells) [panel IL-8] [8]: 0.0077 µg/mL
- IC50, inhibition of IL-36γ induced TNF-α release in primary human epithelial keratinocytes (HEK cells) [panel TNF-α] [8]: 0.00575 µg/mL
- Kd [9]: 0.935 nM
- koff [9]: 3.66e-05 s⁻¹
- kon [9]: 39200 M⁻¹ s⁻¹
- binding result [10]: no binding (tested: up to 100 nM IL-36R)
- binding result [11]: no binding (tested: 1 µg/mL)
- EC50 [12]: 0.0111 µg/mL
- EC50 [13]: 0.0875 µg/mL

B2: 5F7-hu-3 (antibody, V domains shown)
VH: QVQLVESGGGLVKPGGSLRLSCAASGFAFTDYYMNWIRQAPGKGLEWVALIRNKAAGYTIYYSDSVKGRFTISRDNAKSSLYLQMNSLRAEDTAVYYCVRDMTIYDGYYVDYALDYWGQGTLVTVSS
VL: DIVMTQSPSSVSASVGDRVTITCRASQNINIWLSWYQQKPGKAPKLFIYKASNLHTGVPSRFSGSGSGTDFTLTISSLQPEDFATYYCLQSQSYPLTFGQGTKLEIK
notes: Humanized 5F7; also called humanized 5F7
- IC50, IL-36R reporter assay: inhibition of ligand induced luminescence in Jurkat-IL36R-IL1Racp-NFkB-luc cells [2]: 0.0637 µg/mL
- Kd [14]: 4.55 nM
- koff [14]: 0.000194 s⁻¹
- kon [14]: 42700 M⁻¹ s⁻¹
- binding result [10]: no binding (tested: up to 100 nM IL-36R)
- binding result [15]: no binding (tested: up to 100 nM IL-36R)

B3: 5F7-2a8-YTE (antibody, human IgG4 S228P, kappa)
heavy: EVQLVESGGGLVKPGGSLRLSCAASGFAFGDYYMNWVRQAPGKGLEWVALIRNKAAGYTIYYSAPVKGRFTISRDDSKSTLYLQMNSLKTEDTAVYYCVRDMTIYDGYYVDYALDYWGQGTLVTVSSASTKGPSVFPLAPCSRSTSESTAALGCLVKDYFPEPVTVSWNSGALTSGVHTFPAVLQSSGLYSLSSVVTVPSSSLGTKTYTCNVDHKPSNTKVDKRVESKYGPPCPPCPAPEFLGGPSVFLFPPKPKDTLYITREPEVTCVVVDVSQEDPEVQFNWYVDGVEVHNAKTKPREEQFNSTYRVVSVLTVLHQDWLNGKEYKCKVSNKGLPSSIEKTISKAKGQPREPQVYTLPPSQEEMTKNQVSLTCLVKGFYPSDIAVEWESNGQPENNYKTTPPVLDSDGSFFLYSRLTVDKSRWQEGNVFSCSVMHEALHNHYTQKSLSLSLGK
light: DIVMTQSPSSVSASVGDRVTITCRASRNINIWLSWYQQKPGKAPKLFIYKASNLHTGVPSRFSGSGSGTDFTLTISSLQPEDFATYYCLQSQSYPLTFGQGTKLEIKRTVAAPSVFIFPPSDEQLKSGTASVVCLLNNFYPREAKVQWKVDNALQSGNSQESVTEQDSKDSTYSLSSTLTLSKADYEKHKVYACEVTHQGLSSPVTKSFNRGEC
notes: 5F7-2a8 with M252Y/S254T/T256E in the IgG4 (S228P) Fc; also called 5F7-YTE
- fold increase of binding affinity against 5F7-2a8-WT [16]: ~10 fold
- Kd [17]: 15.4 nM
- koff [17]: 0.00277 s⁻¹
- kon [17]: 180000 M⁻¹ s⁻¹
